{
  "source": "paper PMC7038936",
  "about": "(Nucleic Acids Research, 2020)",
  "binders": {"B1": {"name": "XPA DNA-binding domain (XPA 98-239), wild type (domain or fragment, human, UniProt P23025 98-239, looked up)", "chain": "MEFDYVICEECGKEFMDSYLMNHFDLPTCDNCRDADDKHKLITKTEAKQEYLLKDCDLEKREPPLKFIVKKNPHHSQWGDMKLYLKLQIVKRSLEVWGSQEALEEAKEVRQENREKMKQKKFDKKVKELRRAVRSSVWKRET"}, "B2": {"name": "FAM three-way junction (EMSA) (structured_DNA)", "DNA 1": "GTTCGTCAGGATTCCAATTCGTGCAGGCAT", "DNA 2": "ATGCCTGCACGAATTAAGCCATTCGTAATCATGGT", "DNA 3": "ACCATGATTACGAATGGCTTGGAATCCTGACGAAC"}, "B3": {"name": "dC8 (ssDNA)", "DNA": "CCCCCCCC"}},
  "key": {"[1]": {"biological_target": "RPA70AB (RPA70 181-422), tandem ssDNA-binding domains A and B of RPA70 (human, UniProt P27694 181-422)", "sequence (P27694 181-422)": "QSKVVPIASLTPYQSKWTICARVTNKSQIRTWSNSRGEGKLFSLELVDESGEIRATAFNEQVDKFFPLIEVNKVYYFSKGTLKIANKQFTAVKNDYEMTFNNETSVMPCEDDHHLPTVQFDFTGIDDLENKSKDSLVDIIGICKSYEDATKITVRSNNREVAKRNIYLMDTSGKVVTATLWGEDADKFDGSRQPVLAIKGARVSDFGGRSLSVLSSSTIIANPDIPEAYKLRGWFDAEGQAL", "test": "SEC-MALS"}, "XPA full length M2": {"biological_target": "XPA full length M2 (human, UniProt P23025 1-273, E106K;F112A)", "sequence (P23025 whole entry E106K/F112A)": "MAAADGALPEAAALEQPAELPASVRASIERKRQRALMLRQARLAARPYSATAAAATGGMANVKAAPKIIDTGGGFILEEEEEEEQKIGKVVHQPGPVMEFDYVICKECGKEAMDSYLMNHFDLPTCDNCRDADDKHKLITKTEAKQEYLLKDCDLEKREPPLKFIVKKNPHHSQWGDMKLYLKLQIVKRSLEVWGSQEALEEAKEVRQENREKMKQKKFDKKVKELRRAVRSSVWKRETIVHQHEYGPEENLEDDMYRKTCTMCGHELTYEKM", "test": "EMSA"}, "RPA70AB": {"biological_target": "RPA70AB (UniProt P27694 181-422)", "sequence (P27694 181-422)": "as the sequence (P27694 181-422) above", "test": "NMR"}, "[2]": {"biological_target": "XPA globular core (XPA98-219);RPA70AB (human;human?, UniProt P23025;P27694 98-219;181-422, |)", "sequence (P27694 181-422, one chain of several)": "as the sequence (P27694 181-422) above", "test": "NMR"}},
  "data": [
    {"binder": "B1", "values": [
      {"measurement": "binding result", "setting": "[1]", "result": "binds"}
    ]},
    {"binder": "B2", "values": [
      {"measurement": "binding result", "setting": "XPA full length M2", "result": "binds"}
    ]},
    {"binder": "B3", "values": [
      {"measurement": "binding result", "setting": "RPA70AB", "result": "binds"},
      {"measurement": "binding result", "setting": "[2]", "result": "binds"}
    ]}
  ]
}
